# Patent publication US10155985B2, “Evaluation of eosinophilic esophagitis” (CHILDREN'S HOSPITAL MEDICAL CENTER, priority 2004, dated 2018)
# Test system: EE transcriptome
# Assay: Genome-wide microarray transcript profiling of esophageal biopsies, EE patients vs normal individuals (EE transcriptome)
# Details: transcript level in esophageal biopsies of EE patients compared to normal individuals (NL); Affymetrix Human Genome U133 plus 2; p<0.01; >1 up-regulated, <1 down-regulated
# Description: Esophageal tissue obtained from patients previously diagnosed with EE was analyzed. Diagnosis was based on analysis of excised tissue from endoscopic biopsy. Tissues from patients with EE, as well as patients not having EE (controls) were subjected to genome-wide microarray transcript profiling (Affymetrix GeneChip). All work was performed at the Core facility at Children's Hospital Medical Center (Cincinnati Ohio).
# Briefly, RNA quality was first assessed using the Agilent bioanaiyzer (Agilent Technologies, Palo Alto Calif.). Only mRNA having a ratio of 28S/18S between 1.3 and 2 were subsequently used. RNA was converted to cDNA with Superscript choice for cDNA synthesis (Invitrogen, Carlsbad Calif.) and subsequently converted to biotinylated cRNA with Enzo High Yield RNA Transcript labeling kit (Enzo Diagnostics, Farmingdale N.Y.). After hybridization to the GeneChip (Affymetrix, Santa Clara Calif.), the chips were automatically washed and stained with streptavidin-phycoerythrin using a fluidics system. The chips were scanned with a Hewlett Packard GeneArray Scanner. Over 30,000 unique genes were screened.
# Levels of gene transcripts were determined from data image files, using algorithms in the Microarray Analysis Suite software (Affymetrix). Levels from chip to chip were compared by global scaling. Each gene was typically represented by a probe set of 16 to 20 probe pairs. Each probe pair consisted of a perfect match oligonucleotide and a mismatch oligonucleotide that contained a one base mismatch at a central position. Two measures of gene expression were used, absolute call and average difference. Absolute call is a qualitative measure in which each gene is assigned a call of present, marginal or absent, based on the hybridization of the RNA to the probe set. Average difference is a quantitative measure of the level of gene expression, calculated by taking the difference between […] of every probe pair and averaging the differences over the entire probe set. Data were normalized and an EE transcriptome gene list was created with results having p<0.01 (Welch t-test with or without false rate discovery) and ≥1.5-fold change.
# For evaluation of EE using clinical and/or physical assessment, biopsy tissues (obtained from the distal esophagus during routine endoscopy) were submerged in formalin for routine pathological analysis with hematoxylin and eosin staining. Diagnosis was established based on the maximum eosinophil count per high power field (hpf) and basal layer expansion according to method known in the art (e.g., established criteria in Rothenberg et al., Pathogenesis and clinical features of eosinophilic esophagitis. J Allergy Clin Immunol 108 (2001) 891; Attwood et al., Esophageal eosinophilia with dysphagia. A distinct clinicopathologic syndrome. Dig Dis Sci 38 (1993)109; Fox et al., Eosinophilic esophagitis: its not just kid's stuff. Gastrointest Endosc 56 (2002) 26, each of which is expressly incorporated by reference herein in its entirety. Normal individuals (NL), n=13, served as a control and were defined as having 0 eosinophils/hpf and no basal layer expansion. Individuals with EE (n=76) were defined as having >24 eosinophils/hpf and extensive basal layer hyperplasia (expansion to about >⅓ of epithelium).
# The data were analyzed by cluster analysis and ordered (standard correlation (A) and distance (B)) using Genespring software. […] Each column represented a separate individual and each line a gene. RNA from each patient was subjected to chip analysis using Affymetrix Human Genome U133 GeneChip plus 2.
row,Molecule,Fold Change
1,"SEQ_ID_#953 (nucleic acid, listed as Homo sapiens) DNA: TGGTTTCGGTCTATTTATCCAGGGACACCACAGCTTTGGAGGCAGCAAACATGCCCATTTGTTACTATTTGCAAAGATGGTGTACACCAAACATGGGCTTTCCGTAAACAAATTAAAAAGTAATAAAGTGGCCCCATCTGCATACTAGAGCAATGTGCTTCCATTTTAATGAAGCTTGCTATAGAAAAGCCATTTGATGGCTTGTCAAAAGCGTGAATGCCTGTGGCTGAACGTGGAAGTATGCTGTGGTGCAAAGACGTAGTCCTTTCTTCCTCCAGTATGCACGGGGCACCTGCCACACCTGCTGCAAGGACCTGGTCCTGCCCCTAGGCCATCTGCTACGCCAAGGAGACCCAGGTCTTTCCAGTTTCTACCAGGCCCTTTAATGCTCTATCCTGTGGCCCACCCAAGGTTGCAGAGCTGGTAAGCTCTGGAGGTTGAACACAGGCAGTCTGGGCAGAGTGCCTGCTCACTGTCCTGCCTCTCCT",0.627
2,"SEQ_ID_#948 (nucleic acid, listed as Homo sapiens) DNA: AGAGGCGGGCTTCCCTCGGAAAACGGAGGGTTGAAACCCAGAAAGCTCCTCGGAGCCCTTCTGGGGTTCGGGCGATCTGGGCAGAGAACTCTCGGGTGGCAAGGAATTAAGGGCAGCGCGAACGACGGTCTCTAGACAAGTATGAAGCCTCCCCTGAGTGTGTCCGGCGCTCAGGGGGTGGACCGGGGTGTTGGTTTCAAGGAGGGGGCCATCGTTTGCACCACGGCGTCCAGAAATACTCATCCTTTGCCCTTCGGGGAGGCAACAGAGCAGCCAACTGACTGTTCTGGCCAAAGAGACTGGAGATCCAGTATCAGCAAGCTACTTTCTTGGTAAACCTCCATTTCCCAATGCTCATCTTTGTCCTCTACCCCCACCCATCCCAAGGCAAATGATGAAAACATCTATTGGATCCAGCCTTTGCTATCTTCTCCATGCTGCTCATAGTGGGTCTAGCAATGTCCCATTCTCGGTAATGTTTGGTAGGTCTAAAACATCCTCACGAAATGTTCCCCAAATGTTCTGCTCCAGCTGAGCAACTAATAACAATGGGAAGATGCAGAAAAAAAATGCATGGAGCATAATGTTAGTTTTGGGACTCGTCAGTGGCAACGTTTTAGAGATGCCATGAAGAATTCCTGGTAATAATCCTTCTTCCTACAGCATTTAGCAATGAATACTATGGGATTATGGCTAAAAGATGGTCAAGACTGCCTCAGCCATTAGGATCAGAATTCTAAGTTCCAAAGAAGAGCAAACTCAAGAGGATTTCCTCAGGCCTCTGACTATAGATGCTGCCTGGGGAGAACAGGTGCTACACTCAAAACATTCTCATTTTATTTATATCCTCCCTGAACTAGTACCCAACTCCATAACCCCAGACTCAAATAACAGAAATAAAAGCCATCTCACTGATTATAAGCTCTCTAGTTATTACAAAAATAAATAAGCATCAATCAACCAACAGGCATCAGAATGAGAAAATCACTGATTTGAGACATTCAGGCTGCAGGAAAAGAACACTTTTTGTTAATATGTAACTATATCTTCAGTAGTACAGAAAAATGAGAAGAACGAGAGTTCTTACCTGGATTTGCGGCTCACTTAAAGTAGAGCACCTGAGATGCTGGGAAATCATAAAGATAAATAACCAATCTAACAAATTCCTGCCATGAGACCAAAGTGATCCTTGACTACTCTATTAGTAAGCGACTCTGAGCCAAGAGTACGAACCTGTAAGTGGAGTGGTGGTTGGCCCATTAGAAATCTCTGAAAGATCTAAACATGACAGTTACCTTCCTACTGGACTCATACTTCTCAATTCCCTCTCCTAAAAGAATACTTTTGGGCTGGCCCCAGTGGCTCACACCTGTAATCTCGGCACTTTGGGAAGCCAAGGTGGGAGGATTGCTTGAGGACAAGAGTTTGAGACCAGCTCGGTGGAAACATAGCACCATCCATGTCTCTACC",0.629
3,"SEQ_ID_#978 (nucleic acid, listed as Homo sapiens) DNA: GTATATGTTAAAAAAAGAGAAGGTCGCATTATGGACAGACTTCGTGAATGGGAATTTGCTTAGAATTGTGAGTAGTTCTGAATTAGAAAAGTATGTGAAGGAAAGGCAGCTGTAAACGTATTGTGCCCTGGAGAGTTGTACACATGTTGAAATGTAATCTGGGCTTACCTGATCCATTTGGAGTGGATGTCACTGCCGAGTCTGTTCTCACATGGAACCATGTGTGTGGGGTTGCCAGCCTCACAGATACAATCAATCCTATTCCCCTCTGACATAAGGAACTCCTCTGGAGTGGCAGAGTCTTATCACAGAAGGCAGCCACCATTTCACCAAAACAAAAGTTCACGGCATTCAATTCCTTTTTCCTTTAGCTATTTATATATGCAGTACTCTCAGTCATATGCAGAAATACTTTTTTTTTTTAATTAATAGTTACAGGCTTGTTGGTCCAGTGGGATTTGGGTAGGGGGAGAAAGATACCTTCTAAAATGGATCAATAGAACCAAAATAATACAGCATGTTCTATAACCACAAGGAAATCAAATGATCCTGTCATGATTCCAGTTAGTCATAACTATGTTAGCAGTGCTAAATGCATTTTAGAAATGGTGACTTCTGTGGTTTTCCTAGCATTTGTCTCTAACAAATGGTGAAATAATTACTCATGGCCCTCTCTGCCATTGTCTTTCATTTTTTCACAGTGAAATTAGACCCCTTTACTTCACCATTCTGCCACTGCAAATTAAGTATAAAGAAAATAGCAAGAGTGTCCACACCAGTAGACAGTAAGCTTCTCTACCTGTAAGTGATGAAATCATAGCTAATGCACTTGCCATGGAGTTTTCAAGATGATTGGTGTCAGACAGTTTTCACTTTGTTTAAAAAGTGTTGGTGGCCTTTTGTGGTGGTGTTACAATCCTCTGGGGGCTTAGGAGGATGTTGATGCAACTTTTAGAAGCTTTTAATTTCAAAAACAACTCAAAAATCTGAAGGACAGTCATAGCTGCCACTCAGCCCCAGTTAGTCAAACCCCAGTGACCTTTGCCCCTGGTTGCCAAGGGCTTTGCAACATCAAGCAGGGAAATAAGGATCTGTCTGTTTAGTGGATACCGTGTATCCTTTAATAGACCAGGTAACAGTTCGTGTTAGTTTAGACTATTGTTTTGTACTGTACTTTCTTGGGTGGCAGAGGAAAGAAAAGTAAAACATT",0.62
4,"SERPINB1 (nucleic acid, listed as Homo sapiens) DNA: GCTCGGAGCCCGGAGCGTGCCTCGGCGGCCTGTCGGTTTTCACCATGGAGCAGCTGAGCTCAGCAAACACCCGCTTCGCCTTGGACCTGTTCCTGGCGTTGAGTGAGAACAATCCGGCTGGAAACATCTTCATCTCTCCCTTCAGCATTTCATCTGCTATGGCCATGGTTTTTCTGGGGACCAGAGGTAACACGGCAGCACAGCTGTCCAAGACTTTCCATTTCAACACGGTTGAAGAGGTTCATTCAAGATTCCAGAGTCTGAATGCTGATATCAACAAACGTGGAGCGTCTTATATTCTGAAACTTGCTAATAGATTATATGGAGAGAAAACTTACAATTTCCTTCCTGAGTTCTTGGTTTCGACTCAGAAAACATATGGTGCTGACCTGGCCAGTGTGGATTTTCAGCATGCCTCTGAAGATGCAAGGAAGACCATAAACCAGTGGGTCAAAGGACAGACAGAAGGAAAAATTCCGGAACTGTTGGCTTCGGGCATGGTTGATAACATGACCAAACTTGTGCTAGTAAATGCCATCTATTTCAAGGGAAACTGGAAGGATAAATTCATGAAAGAAGCCACGACGAATGCACCATTCAGATTGAATAAGAAAGACAGAAAAACTGTGAAAATGATGTATCAGAAGAAAAAATTTGCATATGGCTACATCGAGGACCTTAAGTGCCGTGTGCTGGAACTGCCTTACCAAGGCGAGGAGCTCAGCATGGTCATCCTGCTGCCGGATGACATTGAGGACGAGTCCACGGGCCTGAAGAAGATTGAGGAACAGTTGACTTTGGAAAAGTTGCATGAGTGGACTAAACCTGAGAATCTCGATTTCATTGAAGTTAATGTCAGCTTGCCCAGGTTCAAACTGGAAGAGAGTTACACTCTCAACTCCGACCTCGCCCGCCTAGGTGTGCAGGATCTCTTTAACAGTAGCAAGGCTGATCTGTCTGGCATGTCAGGAGCCAGAGATATTTTTATATCAAAAATTGTCCACAAGTCATTTGTGGAAGTGAATGAAGAGGGAACAGAGGCGGCAGCTGCCACAGCAGGCATCGCAACTTTCTGCATGTTGATGCCCGAAGAAAATTTCACTGCCGACCATCCATTCCTTTTCTTTATTCGGCATAATTCCTCAGGTAGCATCCTATTCTTGGGGAGATTTTCTTCCCCTTAGAAGAAAGAGACTGTAGCAATACAAAAATCAAGCTTAGTGCTTTATTACCTGAGTTTTTAATAGAGCCAATATGTCTTATATCTTTACCAATAAAACCACTGTCCAGAAAAAAAAAAAAAAAAAAAA",0.62
